The chains are these.
B1: antibody 301 (antibody, V domains shown)
VH: QVQLVQSGAEVKKPGASVKVSCKVSGYTLTELSMHWVRQAPGKGLEWMGGFDPEDGETIYAQKFQGRVTMTEDTSTDTAYMELSSLRSEDTAVYYCATAFCGGDCYPPDALDIWGQGTMVTVSS
VL: DIQMTQSPSSVSASVGDRVTITCRASQGISSWLAWYQQKPGKAPKLLIYAASSLQSGVPSRFSGSGSGTDFTLTISSLQPEDFATYYCQQANSFPLTFGGGTKVEIK
B2: antibody 299 (antibody, V domains shown)
VH: not shown
VL: EIVLTQSPATLSLSPGERATLSCRASQSVSSYLAWYQQKPGQAPRLLIYDASNRATGIPARFSGSGSGTDFTLTISSLEPEDFAVYYCQQRSNWPWTFGQGTKVEIK
B3: antibody 281 (antibody, V domains shown)
VH: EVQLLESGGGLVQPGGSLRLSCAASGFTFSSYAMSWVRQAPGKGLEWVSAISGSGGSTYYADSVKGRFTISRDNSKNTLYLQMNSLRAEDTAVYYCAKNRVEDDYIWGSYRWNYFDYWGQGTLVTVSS
VL: QSALTQPASVSGSPGQSITISCTGTSSDVGSYNLVSWYQQHPGKAPKLMIYEVSKRPSGVSNRFSGSKSGNTASLTISGLQAEDEADYYCCSYAGSSTHVVFGGGTKLTVL
B4: antibody 273 (antibody, V domains shown)
VH: QVQLVQSGAEVKKPGASVKVSCKVSGYTLTELSMHWVRQAPGKGLEWMGGFDPEDGETIYAQKFQGRVTMTEDTSTDTAYMELSSLRSEDTAVYYCATAPGYYDSSAPQPINWFDPWGQGTLVTVSS
VL: QSALTQPASVSGSPGQSITISCTGTSSDVGSYNLVSWYQQHPGKAPKLMIYEVSKRPSGVSNRFSGSKSGNTASLTISGLQAEDEADYYCCSYAGSSTLVFGGGTKLTVL
B5: antibody 266 (antibody, V domains shown)
VH: QVQLVESGGGVVQPGRSLRLSCAASGFNLSNYAMHWVRQPSGKGLEWVSLISYDGSIKYYTDSVKGRFTVSGDNSKNTLFLQMNSLRPDDSALYYCVRGGVSGPNSFDMWGQGTTVTVSS
VL: DVVMTQSPLSLPVTLGQPASISCRSSQSLVYSDGNTYVNWFQQRPGQSPRRLIYQVSIRASGVPDRFSGSGSGTDFALKISRVEAEDVGVYYCMQGTHWPVTFGQGTKVEIK
B6: antibody 264 (antibody, V domains shown)
VH: QVHLVESGGGVVQPGRSLRLSCAASGFTLTSYAMHWVRQAPGKGLEWVALISYDGSVKKYAESVKGRITVSGDNSRNTLHLQINTLRADDTAVYYCVRGGVSGPNSFDLWGQGTMVTVSS
VL: B5 VL with V30E, I58N, A77T, K79Q, V90I
B7: antibody 303 (antibody, V domains shown)
VH: B5 VH with N31S, P40A, T61A, T78M, P88A, S106A, M109I
VL: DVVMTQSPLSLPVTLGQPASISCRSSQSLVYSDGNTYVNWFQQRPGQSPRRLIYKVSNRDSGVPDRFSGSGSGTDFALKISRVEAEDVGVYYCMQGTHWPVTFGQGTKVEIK
B8: antibody 276 (antibody, V domains shown)
VH: QVQLQESGPGLVKPSQTLSLTCTVSGDSISSGGYYWSWIRQHPGKGLEWIGYIYYSGSAYYNPSLKSRVTISLDTSKNQFSLKLSSVTAADTAVYYCARDSVAGFSIFDYWGQGTLVTVSS
VL: SSELTQDPAVSVALGQTVRITCQGDSLRSYYASWYQQKPGQAPVRVIYGKNNRPSGIPDRFSGSSSGNTASLTITGAQAEDEADYYCNSWDSSGNHVVFGGGTKLTVL
B9: antibody 263 (antibody, V domains shown)
VH: EVQLVQSGAEVKKPGATVKISCKVSGYTFTDYYMHWVQQAPGKGLEWMGLVDPEDGETIYAEKFQGRVTITADTSTDTAYMELSSLRSDDTAVYYCTTDLAFTIFGGRRGFDPWGQGTLVTVSS
VL: DIQLTQSPSFLSASVGDRVTITCRASQGISSYLAWYQQKPGKAPKLLIYAASTLQSGVPSRFSGSGSGTEFTLTISSLQPEDFATYYCQQLNSYDFGQGTRLEIK
B10: antibody 265 (antibody, V domains shown)
VH: EVQLVQSGAEVKKPGATVKVSCKFSGDTFSHYYIHWVQQAPGKGLEWMGLVDPQDGESEYAQKFQGKVTITADTSIDTSYLEVTSLRFDDTAFYFCATRGMSGAFDRWGQGTLVTVSS
VL: DIVMTQSPDSLAVSLGERATINCKSSQSILSTSNNKNYLAWYQQKPGQPPKLLIYWASTRESGVPDRFSGGGSGTDFTLTISSLQAEDVAVYYCQQYYRTAYTTPIYTFGQGTKLEIK
B11: antibody 260 (antibody, V domains shown)
VH: EVQLVESGGGLVQPGRSLRLSCAASGFTFDYYAMHWVRQAPGKGLEWVSGISWNSGTIGYADSVKGRFTISRDNAKNSLYLQMNSLRAEDTALYYCAKDSRPSGRYYYGMDVWGQGTTVTVSS
VL: not shown
B12: antibody 300 (antibody, V domains shown)
VH: QVQLVESGGGVVQPGRSLTLSCAASGFTFSSYAMHWVRQAPGKGLEWVALISYDGNNKYYADSVKGRFTFSRDNSKNTLYLQMNSLRAEDTAVYYCARTNSGSYRTAFDYWGQGTLVTVSS
VL: DIQMTQSPSTLSASVGDRVTITCRASQSISIWLAWYQQKPGKAPKLLIYKASSLESGVPSRFSGSGSGTEFTLTISSLQPDDFATYYCQQYNSLWTFGQGTKVEIK
B13: antibody 290 (antibody, V domains shown)
VH: QVHLVQSGAEVKKPGASVKVSCAASGYTFNNYGVSWVRQAPGQGLEWMGWISASNGNTKYAQNLQGRVTMTTDTSTSTAYMELRSLRSDDTAVYYCARDLVGPTAPNYYYGMDVWGQGTAVTVSS
VL: QSVLTQPPSVSGAPGQRVTISCTGSSSSIGAGYDVHWYQQLPGTAPKLLIYANSNRPSGVPDRLSGSKSGTSASLAITGLQAEDEADYYCQSYDSSLSGYVFGTGTKVTVL
B14: antibody 288 (antibody, V domains shown)
VH: EVQLVESGGGLVQPGGSLRLSCAASGFTFSSYDMHWVRQATGKGLEWVSAIGTAGDTYYPGSVKGRFTISRENAKNSLYLQMNSLRAGDTAVYYCARGANRDYDILTGYYSYYYYGMDVWGQGTTVTVSS
VL: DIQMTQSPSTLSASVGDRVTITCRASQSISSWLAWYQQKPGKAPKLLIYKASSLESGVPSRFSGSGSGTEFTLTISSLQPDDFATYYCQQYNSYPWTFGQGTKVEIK
B15: antibody 294 (antibody, V domains shown)
VH: EVQLVESGGGLVQPGGSLRLSCAASGFTVSSNYMNWVRQAPGKGLEWVSVIYSGGSTYYADSVKGRFTISRDNSKNTLYLQMNSLRAEDTAVYYCARDLGPSGMDVWGQGTTVTVSS
VL: DIQMTQSPSSVSASVGDRVTITCRASQGISSWLAWYQQKPGKAPKLLIYAASSLQSGVPSRFSGSGSGTDFTLTISSLQPEDFATYYCQQANSFPLFGGGTKVEIK
B16: antibody 295 (antibody, V domains shown)
VH: QVQLQESGPGLVKPSQTLSLTCTVSGGSISSSDYYWSWIRQPPGKGLEWIGYIYYSGSTYYNPSLKSRVTISVDTSKNQFSLKLSSVTAADTAVYYCARVVGYCSSTSCYVDYWGQGTLVTVSS
VL: EIVLTQSPATLSLSPGERVTLSCRASQSVSSYLAWYQQKPGQAPRLLIYDASNRATGIPARFSGSGSGTDFTLTISSLEPEDFAVYYCQQRSNWPPGLTFGGGTKVEIK
B17: antibody 259 (antibody, V domains shown)
VH: EVQLVQSGAEVKKPGATVKISCKVSGYTFTDYYMHWVQQAPGKGLEWMGLVDPEDGETIYAEKFQGRVTITADTSTDTAYMELSSLRSEDTAVYYCATDLLSWKLYCSGGSCPQMDVWGQGTTVTVSS
VL: DIQMTQSPSSLSASVGDRVTITCRASQGIRNDLGWYQQKPGKAPKRLIYAASSLQSGVPSRFSGSGSGTEFTLTISSLQPEDFATYYCLQHNSYPQTFGQGTKLEIK
B18: antibody 263 (antibody, V domains shown)
VH: B9 VH
VL: B9 VL
B19: antibody 260 (antibody, V domains shown)
VH: B11 VH
VL: not shown
B20: anti-SARS-CoV-2 antibody 1098 (antibody, V domains shown)
VH: DVQLVQSGAEVKKPGESLKISCKGSGYRFTSYWIAWVRQMPGKGLEWMGIIYPGDSDTRYSPSFQGQVTISADKSISTAYLQWSSLKASDTAMYYCASQAAAGYFYYMDVWGKGTTVTVSS
VL: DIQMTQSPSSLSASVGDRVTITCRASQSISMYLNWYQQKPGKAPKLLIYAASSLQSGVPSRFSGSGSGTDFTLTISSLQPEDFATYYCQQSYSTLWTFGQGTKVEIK
B21: anti-SARS-CoV-2 antibody 1203 (antibody, V domains shown)
VH: QLRLQESGPGLVKPSETLSLTCTVSGGSISSSNFYWGWIRQPPGKGLEWIGSIYYSGSTHYNPSLKSRVTVSVDTSKNQFSLKLSSVTAADTAVYYCARLTYYYDSSGFIRAEPFDYWGQGILVTVSS
VL: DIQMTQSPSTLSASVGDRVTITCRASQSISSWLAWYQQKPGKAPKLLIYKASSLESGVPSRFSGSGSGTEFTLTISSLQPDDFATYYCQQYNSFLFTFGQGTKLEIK
B22: anti-SARS-CoV-2 antibody 1118 (antibody, V domains shown)
VH: EVQLVESGGGLVQPGGSLRLSCAASGFRFSNYEMNWVRQAPGKGLEWVSYISSTGGSIFYADSVKGRFTISRGDAKNSVYLQMNSLRAEDTAVYYCARAMYYYGSGTLDYWGQGTLVTVSS
VL: DIQMTQSPSSLSASVGDRVTITCRASQSISRFLNWYQQKPGTAPKLLIYDVSSLQSGVPTRFSGSGSGTDFTLTISSLQPEDFATYYCQQSYTTPPAFGPGTRVDIK

Changes are numbered by the printed parent chain.

Broadly, the Kd is the constant that tells how readily two partners part at equilibrium.

One test addresses SARS-CoV-2 full length spike protein (wild type) (SARS-CoV-2, UniProt P0DTC2 14-1208).
Assay: not given
For the molecule B1, the “binding signal, bead assay (fold over isotype)” value stood at 865. For the molecule B2, the “binding signal, bead assay (fold over isotype)” value is 1.43. As for B3, the “binding signal, bead assay (fold over isotype)” value worked out at 570.

On to B4, for which the “binding signal, bead assay (fold over isotype)” value stood at 924.

On to B5, for which the “binding signal, bead assay (fold over isotype)” value was 473. Take B6: the “binding signal, bead assay (fold over isotype)” value came to 598. Regarding B7, the “binding signal, bead assay (fold over isotype)” value came to 341. On the same count and under the same terms, in the case of B8 it was 748; in that of B9, 722; in that of B10, 1280. For the molecule B11, the “binding signal, bead assay (fold over isotype)” value was 724. Turning to B12, the “binding signal, bead assay (fold over isotype)” value came out at 721. With B13, the “binding signal, bead assay (fold over isotype)” value was found to be 1.16. Consider B14, for which the “binding signal, bead assay (fold over isotype)” value was 495.

Regarding B15, the “binding signal, bead assay (fold over isotype)” value turned out to be 1230. Regarding B16, the “binding signal, bead assay (fold over isotype)” value amounted to 599.

The next test concerns the target full-length trimeric SARS-CoV spike protein (SARS-CoV, UniProt P59594 14-1190).
Assay: not given
For B17, the “median fluorescence intensity, fold over isotype control” value (“median fluorescence intensity, fold” for short) stood at 1.03 fold over isotype.

In the case of B18, the “median fluorescence intensity, fold” value came to 1.13 fold over isotype.

Take B19: the “median fluorescence intensity, fold” value was 108 fold over isotype.

The next test concerns the target SARS-CoV-2 spike protein (wild type), spike protein trimer (SARS-CoV-2, UniProt P0DTC2 14-1208).
Assay: not given
Molecule B20 gave a Kd of 173 pM. In other words, the sub-nanomolar range. Same read-out and setting: in the case of B21 it was 302 pM; in that of B22, 223 pM.

Another test deals with SARS-CoV-2 full-length spike protein on pseudotyped lentivirus (SARS-CoV-2, UniProt P0DTC2 14-1273). Nature of the test: cell-based or functional assay.
With B20, the “Pseudo-neutralization IC50” value came out at 0.087 µg/mL. In the case of B21, the “Pseudo-neutralization IC50” value was found to be 0.02 µg/mL. With B22, the “Pseudo-neutralization IC50” value was 0.026 µg/mL.

Source of the values: patent publication US20210292393A1 (published 2021).
